Tests used:
Assay in all cases: competitive binding assay (PROMEGA-GLO 2)
caspase-3 = target: T1, caspase-3 (UniProt P42574 29-277, limits assumed)
T1 sequence (looked up): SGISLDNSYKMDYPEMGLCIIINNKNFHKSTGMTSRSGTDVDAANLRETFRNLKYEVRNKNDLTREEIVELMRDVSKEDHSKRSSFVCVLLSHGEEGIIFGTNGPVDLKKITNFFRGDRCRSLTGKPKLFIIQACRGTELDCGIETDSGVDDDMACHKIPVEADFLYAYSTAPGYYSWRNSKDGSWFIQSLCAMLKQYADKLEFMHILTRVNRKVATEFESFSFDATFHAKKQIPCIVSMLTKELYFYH

caspase-2 = target: T2, caspase-2 (UniProt P42575 170-325; P42575 334-452, limits assumed)
T2 construct: also called recombinant caspase-2
T2 sequence (looked up) 1: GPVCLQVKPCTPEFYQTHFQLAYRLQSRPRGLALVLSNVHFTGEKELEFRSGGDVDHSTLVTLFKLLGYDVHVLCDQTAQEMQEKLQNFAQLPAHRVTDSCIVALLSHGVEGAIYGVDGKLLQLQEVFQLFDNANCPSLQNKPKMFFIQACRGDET
T2 sequence (looked up) 2: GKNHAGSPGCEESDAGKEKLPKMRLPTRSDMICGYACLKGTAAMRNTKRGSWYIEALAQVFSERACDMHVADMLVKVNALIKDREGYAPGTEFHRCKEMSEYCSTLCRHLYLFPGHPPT

caspase-6 = target: T3, caspase-6 (UniProt P55212 24-179; P55212 194-293, limits assumed)
T3 sequence (looked up) 1: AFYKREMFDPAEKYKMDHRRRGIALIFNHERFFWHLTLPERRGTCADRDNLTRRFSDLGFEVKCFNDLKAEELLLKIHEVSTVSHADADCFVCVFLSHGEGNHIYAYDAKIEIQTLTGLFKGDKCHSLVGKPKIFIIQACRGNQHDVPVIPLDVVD
T3 sequence (looked up) 2: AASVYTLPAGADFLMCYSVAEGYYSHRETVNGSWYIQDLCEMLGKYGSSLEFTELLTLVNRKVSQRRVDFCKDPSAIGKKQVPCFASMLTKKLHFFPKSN

B1: Ac-YKPVD-CHO (SEQ ID NO: 1) (peptide)
peptide: Ac-YKPVD-aldehyde
SMILES: CC(=O)N[C@@H](Cc1ccc(O)cc1)C(=O)N[C@@H](CCCCN)C(=O)N1CCC[C@H]1C(=O)N[C@H](C(=O)N[C@H](C=O)CC(=O)O)C(C)C
notes: Designed to mimic the caspase-2 cleavage site of tau; also called parent pentapeptide; Tyr-Lys-Pro-Val-Asp
Ki (caspase-3): 19.8 µM | Ki (caspase-2): 0.2 µM | Ki (caspase-6): 184 µM

— patent US20140171373A1 (REGENTS OF THE UNIVERSITY OF MINNESOTA, published 2014)
